Measured values published in the DeepSol protein solubility set.

Assay: soluble on expression in E. coli; label from the status in PepcDB or PDB records

Row | Sequence | soluble on expression in E. coli
1 | MSMLKPSGLKAPTKILKPGSTALKTPTAVVAPVEKTISSEKASSTPSSETQEEFVDDFRVGERVWVNGNKPGFIQFLGETQFAPGQWAGIVLDEPIGKNDGSVAGVRYFQCEPLKGIFTRPSKLTRKVQAEDEANGLQTTPASRATSPLCTSTASMVSSSPSTPSNIPQKPSQPAAKEPSATPPISNLTKTASESISNLSEAGSIKKGERELKIGDRVLVGGTKAGVVRFLGETDFAKGEWCGVELDEPLGKNDGAVAGTRYFQCQPKYGLFAPVHKVTKIGFPSTTPAKAKANAVRRVMATTSASLKRSPSASSLSSMSSVASSVSSRPSRTGLLTETSSRYARKISGTTALQEALKEKQQHIEQLLAERDLERAEVAKATSHVGEIEQELALARDGHDQHVLELEAKMDQLRTMVEAADREKVELLNQLEEEKRKVEDLQFRVEEESITKGDLETQTKLEHARIKELEQSLLFEKTKADKLQRELEDTRVATVSEKSRIMELEKDLALRVQEVAELRRRLESNKPAGDVDMSLSLLQEISSLQEKLEVTRTDHQREITSLKEHFGAREETHQKEIKALYTATEKLSKENESLKSKLEHANKENSDVIALWKSKLETAIASHQQAMEELKVSFSKGLGTETAEFAELKTQIEKMRLDYQHEIENLQNQQDSERAAHAKEMEALRAKLMKVIKEKENSLEAIRSKLDKAEDQHLVEMEDTLNKLQEAEIKKEKFAEASEEAVSVQRSMQETVNKLHQKEEQFNMLSSDLEKLRENLADMEAKFREKDEREEQLIKAKEKLENDIAEIMKMSGDNSSQLTKMNDELRLKERDVEELQLKLTKANENASFLQKSIEDMTVKAEQSQQEAAKKHEEEKKELERKLSDLEKKMETSHNQCQELKARYERATSETKTKHEEILQNLQKTLLDTEDKLKGAREENSGLLQELEELRKQAEKAKAAQTAEDAMQIMEQMTKEKTETLASLEDTKQTNAKLQNELDTLKENNLKNVEELNKSKELLTVENQKMEEFRKEIETLKQAAAQKSQQLSALQEENVKLAEELGRSRDEVTSHQKLEEERSVLNNQLLEMKKRESKFIKDADEEKASLQKSISITSALLTEKDAELEKLRNEVTVLRGENASAKSLHSVVQTLESDKVKLELKVKNLELQLKENKRQLSSSSGNTDTQADEDERAQESQQMIDFLNSVIVDLQRKNQDLKMKVEMMSEAALNGNGDDLNNYDSDDQEKQSKKKPRLFCDICDCFDLHDTEDCPTQAQMSEDPPHSTHHGSRGEERPYCEICEMFGHWATNCNDDETF | soluble
2 | MANKKIDHREEAIELLKQDAKRILQLIKVQMDNLTLPQCPAYEEVLDTQMYGLSREINFATRLGLIEPEEGKKLISTLEKELSALHELSMSKK | not soluble
3 | MLAEIKGLNEECGVFGIWGHENAAQVSYYGLHSLQHRGQEGAGIVVNNGEKIVGHKGLGLISEVFSRGELEGLNGKSAIGHVRYATAGGSEVANVQPLLFRFSDHSMALAHNGNLINAKMLRRELEAEGSIFQTSSDTEVLLHLIKRSTKDSLIESVKEALNKVKGAFAYLLLTGNEMIVALDPNGFRPLSIGKMGDAYVVASETCAFDVVGATYIRDVEPGELLIINDEGIHVDRFTNEVDHAICSMEYIYFARPDSNIAGINVHAARKNMGKRLAAEAPIEADVVTGVPDSSISAAIGYAEATGIPYELGLIKNRYVGRTFIQPSQELREQGVKMKLSAVRGVVEGKRVVMIDDSIVRGTTSKRIVRMLREAGATEVHVRIASPPLKYPCFYGIDIQTRKELIAANHTVEEIREMIGADSLTFLSEDGLVDAIGRPYEGKYGGLCMAYFNGDYPTALYDYEQELLESMK | not soluble
4 | MRSVTLPLLMFCLGLAACSGDGGRRPSTCEVISPPDVMVPTEQNRQRVEQQSSGDPTAGQKPVECP | not soluble
5 | MTFRGPSPPRFGHSMDLPAYAIEAEGLYKTYAGTKTSPEKRALNGIDLKIPRGSIFGLLGPNGAGKSTFINILAGLVRKSSGTVRIWGRDIDQRPRDARAAIGVVPQELAADVFFTPRESLEVQAGFYGVPKSERRTDELLNALGLGDKAGAYVRQLSGGMKRRLMVAKAMVHQPPVLILDEPTAGVDVELRRQLWQYVTSLNELGVTIVLTTHYLEEAQELCDEIAIINRGEVVACEPTAKLLSRMDSRNVVVTPESPVTAAPVLEGFDTKLRSGGAFSVSYRTGQSSVEQVLAAVRASGLHIKDIATEDPDLEDVFVALTYGDPNAADPTKDLEHHHHHH | not soluble
6 | MGSDKIHHHHHHMYFITLSRQLGTKGTEIAKLVAKELHYDFYDTEAIEKKAGEMGFLDDIRKVDDKPPSPLKQLFSWQTETCLEHLYTVIYDLSRYGNAVVLGRGGNMLFRPIPHALHVRVIASHEKRVQNLLEKVYRRETAVMIMEKSDQERSSFIRFAFNRDWGDPELYDMVLNMDNMTVRSAADTILRAARLRESQCPSRDGMSPLNLMELTAKVKAALANAGFPSNYASPFVNAPGKVRLTGIVHDPREKLAAEMTALKVEGVESVENRIQIAGS | not soluble
7 | MGSDKIHHHHHHMEVVGRSRAKAIIETHLNDSLVYFSDHVRILKCNPYCTGVTYLKEHGVYQWIFQVNDPRENPITAVFFVTQNEEHLDSSRTVPAGPVSEEESFPDSAVSGRCIQWVNAPQVPDVPLKEKNTFVGQANTRICLYPLEDRRTEVHFETDITLDFELSFPLNLMPEGILKFMTEAVMSKIMQQATESMLCQVQSDLCCCTTAELDASGGKV | not soluble
8 | GPGSMLRRSYATLRRKASVVLKGQLNPLEALTQIQLGMTPSLPIQRGFLLEHCERQLESLGITEGKLLAMDGRLCTQLTKRIVYELYLSVPFRVFTFDMEFTGPPVFTADGPTEDITELGLYSPLLDETFSCLVRPVCGRKQGPGVEELTHITDMMLEREGIPFVEAWQQFLKFVQTPQPDEISGSEERILLLSHGGKLADVSLIKWTLEKFHMELPPSFVFGDTIHLIRDAHRRRPVTIDKHPPSWKLADLVQWLHIPPTLPAHRAGNDARMTWDALYHTLLRYGDDGMTPREQLVPRFFDAEAKQLLREHTARQAQERAALSLDGTFLLADAKQSTSAGHADSSSIGYSVYRSASDGSGKPGKSGAATDLLDLDFDDIFSEQNKVSASAPIEEFKLDDDDDLHSISAGATSFTASRTLSSTTTSRTADLSVDPAEDDNAVSDVNAASTSTVSPARAAKTATSGGRKGKASGSSRSKEAVEKRNKRRVSAGDDDGGETSDPPAAATRAVFLV | soluble
9 | MSNHHSSCSSRTGGAHRRCDCTEDLTENDKLWNDFEGCAQAVARLYSDSSWRNFRGAAEGTTQLYKTSTDSYRRGFEKGFSSGCTSIAKEILQAFRDPSKIDMNIVLEVLYRNMAIPREERLTVNTQNGISSDTLAAVELFQQALNQPQVPPLSTLSLLPPTTREQTTDTLDEFLASQVQRHRKRQRSPNNSTTSPTSQMKRQRRL | soluble
10 | MRPFILLALLVSVTVAFNIFRDEVVPEEQLLAVRRTTRDASDSSSDSDEKDDAKTTVTVSFGLSGSQAWPIFQFFSFALKTKKKSKFFRRSGYELRPRP | not soluble
11 | MLLRKFCGIEKTDNGYLIHGDAGDIKLVFMTDDIIRIRVSFDRKFKEASYALVTTAWEDELDELFQEERTRIQAKDVVCEEKEDALIFHTTALKLVMKKQPIQFLLYDVEGKLIYNDLKERAFDQDQLGRVTHYSEIHADTDHFYGFGEKTGHLDKKGRHLRMSPKDAIGADPEFGEPLYKHVPFYIRVNEENLHALGLFYNNSYDAVFDMGNERSGYWDSYCYYQADGGDIDLFLINGPKMASVLERYTYLTGRQAMPTKQSLGYTASTMYYAELEQNCDEEIYKVIQKHFDEKIYIDNFWLASGYSSGEEDNLRYVFNWNKKRFPDPEGFFEKMEQEMGINVIPNMKPGILKNHPYRKVFEQYDAFVKTPDKAEDYVGRWWGGEGRFVDFTKKAGRDAWKELLKKNLMAKGMRTVWNDNCEYDGVEDRNAYCDHEGMGGTMAELKIIQSNMMAYTGKEALKEVYPKARPYIINRAGYAGIQRYAQVWAGDNLTDWRTVKFNIATIMGMGLSGMSNAGCDIGGFAGPAPGGELLLRWIQNGIFQPRFCINSANNDNTVTQPWMYEENLPYVQAAYAQRYRMIPYLYSVMRESHENGMPVMRPLFLEFPEDVKCYRDQNLTFMFGPSVLVANVVEKGAITRTIYLPKGTTWYDMNDNFKAYEGGQTIELPVDLSSIPMFLRGSAVYMTTEDIHHIAKDTMKALDLFVSCEEDAEFTYYDDDGWSKEYEEGNFAETKISVKAGDRKQIHFHKNGFYQESWENLNLNVVSKEKGAYWVSVDGEKIPRFLIRDAFDEAETGWYYDMSDRIVKVKCKKPQKDDFEIVVSCEKFDLIGMENEI | not soluble
12 | MNGGSSIKVLGLVGSPKVDGNTAKMVDAILEGAAENGAETVIYNLASLDIKGCDACHRCQETGCCAIDDDMQELYRQIEEADAVVLGSPVYMWQMTAQTKLLIDRMTAFLKPNFSSRLDHKKLILVFTQGIPDRDAFNSYFEYTAGVLYYLGFDVLETIVAAGTDNLEVAFRPRLLEKSRELGKLISASNPVSPRYRRALEHHHHHH | not soluble
13 | MRTIYVIGIGTGSPEFLTLQAISGLRHAQAIVALDKGEQKSDLLALRQKIVDTHAPGTPIYAVTDPERDRNPDNYEEEVRRWHAERAHLLASTIRERTPDDGAVAFLVWGDPSLYDSTLRIIEHMRNLEDLHADVKVIPGITAVQVLTAEHGILINRIGEAIHITTGRNLPETSAKDRRNCVVMLDGKTAWQDVATEHTYMWWGAFLGTEQQVLRKGYVHEIGAQVAELKQQLRTEHGWIMDTYLLRELD | soluble
14 | MNRKIERMIIELEKECKAQNVELLLCATNFETGQGSTAFCGSVIGLAILLQKLVGDLKEQLSISESCDCPECVAEKAEDAANEKSMDELLTAFLRGELQ | not soluble
15 | MAHHHHHHMGTLEAQTQGPGSMNLDNVTGGDNVPKEINVIIEISQNSCPVKYEFDKEKNLFCVDRFLPTSMYYPCNYGFIPHTCAGDGDPVDVLVASRFPVMSGAVIRARPVGVLVMHDESGEDVKILAVPTHKVDQYYNNIKDYSDFPVSFLNSISHFFTFYKKLEEDKFVSVEGWKDVTVAEKLILSALIK | soluble
16 | MSTRKDYLSFIAVAAHEFVHTWNVKQYRPKGIVPYDYQQENYSNLLWLVEGSTSYLQYQLLLRGNLMTTDEFFTALAKRITAHAHKPGKESQSVAQASFDAWISEGGDYGNNHSVNIYSEGFLASWLLDFDILAKTALEHHHHHH | not soluble
17 | MSLRVFVCGCVHGSWDIVVDEVNKLVENGTKLDLIIVAGDLEAFITESDLLSYKRPNGTQGFGSFHKIANGEKHLPCKMLVIGGNNESTDIIFQLPFGGWITPDVYFAGRASQIYFGDLLITCTSGVYNVKNYWKKVYEHFPVRKKECYSVNHTRAFSNFQVYGLTQLNIFVTHDWPSGIPKMFRDIIPKKSLVDSDDSNDFGMQDYRKILEKKQPKYWFAAHHHIKFECEPNPGTKFIAVPRVIQDNWYSLQTFDEKPGDFMISGEWINILKKTEEYMKDPSVLKDIDWDEEWTKINSLPSADLPIKVPVMEYNNDYKVQTAKFCETYGIYNPNEGHHHHHH | soluble
18 | MAHHHHHHSLALIVKIGGSIQKDEKDYELIVKKIQDFSKKSDKIIVVTSAIKNVTNELISATSNTDNSPNIVTEIYERHIKLLSKLADGKEFENSFKDISRLSDELFRVAWSIRVLDEVTPRVRDYILSFGERMATLLLSAILRSNGIEAEGIITPPFLTDENYGEANVIEDLSKNEIANILENAKANVIVLPGFIGRTREGRYTTLGRGGSDYTATLLGKLVGVREVRLVTEVPGIMTGDPKKFENAKTISRLSLEEAIELSQLGAKRLHPRTFDPVFGSDMKVIVESLYEDGFTIINGECQNNDGLKGISLLDNAKLITVESTKIVGKIGSAARITNEAKEAGVNIISISQPASETTIQLVVDSLSANRLLSKLEEIRGTLVKDIEVNDINIVGIVGCGIKKKEISTKVLSIASSYDPLAISRGISNVSMTFIVNKDEGEKLAKELHKVIVSGEG | soluble
